Experimental data from paper PMC5148137 (Biochemical and biophysical research communications, 2012).

Target: Cul3(1–383)-(His)6 (co-expressed) (human, UniProt Q13618 1-383)
Experiment: AUC

Chain of Cul3(1–383)-(His)6 (co-expressed) (Q13618 1-383): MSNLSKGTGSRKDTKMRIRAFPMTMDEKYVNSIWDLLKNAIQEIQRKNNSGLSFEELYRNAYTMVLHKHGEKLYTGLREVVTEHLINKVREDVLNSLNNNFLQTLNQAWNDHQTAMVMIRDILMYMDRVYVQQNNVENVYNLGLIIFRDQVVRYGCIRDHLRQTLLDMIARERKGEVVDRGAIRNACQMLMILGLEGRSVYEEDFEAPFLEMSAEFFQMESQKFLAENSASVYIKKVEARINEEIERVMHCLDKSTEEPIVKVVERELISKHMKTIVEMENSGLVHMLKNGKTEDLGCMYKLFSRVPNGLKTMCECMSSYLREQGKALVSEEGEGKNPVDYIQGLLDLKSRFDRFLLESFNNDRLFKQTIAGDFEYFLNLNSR

stoichiometry N: 1
B1: MBP-KBTBD13(6–132) (domain or fragment, human, UniProt C9JR72 6-132, looked up)
chain: QTLVQVWVGGQLFQADRALLVEHCGFFRGLFRSGMRETRAAEVRLGVLSAGGFRATLQVLRGDRPALAAEDELLQAVECAAFLQAPALARFLEHNLTSDNCALLCDAAAAFGLRDVFHSAALFICDG
